Columns and labels:
[1] = biological target: human PD-L1 full-length protein on CHO-hPD-L1 stable cells (human) (UniProt Q9NZQ7); test: flow cytometry, antibody titration on CHO-hPD-L1 cells, MFI-APC
[2] = biological target: human PD-L1 full-length protein on CHO-hPD-L1 stable cells (human) (UniProt Q9NZQ7); test: flow cytometry blocking assay (method 1): antibody titrated on CHO-hPD-L1 cells; blocked ligand recombinant human PD-1-hFc
[3] = biological target: human PD-L1 on IFNγ-stimulated A375 cells (human) (UniProt Q9NZQ7); test: flow cytometry, antibody titration on human IFNγ-stimulated A375 cells, MFI-APC
[4] = biological target: macaque PD-L1 on CHO-cynoPD-L1 stable cells (macaque); test: flow cytometry, antibody titration on CHO-cynoPD-L1 cells, MFI-APC
[5] = biological target: recombinant human PD-L1 protein carrying a hFc label (human) (UniProt Q9NZQ7); test: flow cytometry blocking assay (method 2): antibody titrated; binding of recombinant human PD-L1-hFc to PD-1 on CHO-hPD-1 cells is blocked
[6] = biological target: human PD-L1 full-length protein on CHO-hPD-L1 stable cells (human) (UniProt Q9NZQ7); test: flow cytometry blocking assay: antibody titrated on CHO-hPD-L1 cells; blocked ligand recombinant human CD80-hFc

Chain of human PD-L1 full-length protein on CHO-hPD-L1 stable cells (human) (Q9NZQ7 19-290 limits assumed): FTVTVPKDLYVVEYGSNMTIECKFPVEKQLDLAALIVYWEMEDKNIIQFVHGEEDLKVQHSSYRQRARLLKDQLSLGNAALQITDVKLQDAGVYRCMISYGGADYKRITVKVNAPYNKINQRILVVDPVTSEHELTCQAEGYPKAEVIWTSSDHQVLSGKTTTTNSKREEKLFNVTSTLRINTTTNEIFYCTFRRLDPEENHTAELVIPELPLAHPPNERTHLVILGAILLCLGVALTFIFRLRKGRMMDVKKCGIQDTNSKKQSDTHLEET
Chain of human PD-L1 on IFNγ-stimulated A375 cells (human) (Q9NZQ7 19-290): as the sequence (Q9NZQ7 19-290 limits assumed) above
Chain of recombinant human PD-L1 protein carrying a hFc label (human) (Q9NZQ7 19-238): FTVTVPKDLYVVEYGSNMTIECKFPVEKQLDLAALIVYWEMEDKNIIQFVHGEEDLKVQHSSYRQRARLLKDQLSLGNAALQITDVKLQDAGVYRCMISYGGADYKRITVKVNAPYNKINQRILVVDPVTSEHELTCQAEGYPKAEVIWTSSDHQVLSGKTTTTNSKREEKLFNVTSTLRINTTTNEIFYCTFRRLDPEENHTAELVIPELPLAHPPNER
Chain of macaque PD-L1 on CHO-cynoPD-L1 stable cells (macaque) (Q9NZQ7 other isoform, or with tags, fused parts or gaps limits assumed): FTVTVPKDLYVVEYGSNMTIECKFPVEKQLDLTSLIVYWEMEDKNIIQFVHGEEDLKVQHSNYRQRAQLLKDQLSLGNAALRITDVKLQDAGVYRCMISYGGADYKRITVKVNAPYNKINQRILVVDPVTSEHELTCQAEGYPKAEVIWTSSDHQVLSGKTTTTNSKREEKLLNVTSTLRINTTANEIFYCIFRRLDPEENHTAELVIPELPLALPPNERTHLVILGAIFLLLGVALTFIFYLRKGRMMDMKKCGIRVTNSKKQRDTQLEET

“atezolizumab-mIgG1 (mIgG1 subtype) (antibody)” gave an EC50 [1] of 0.984 nM, an IC50 [2] of 6.32 nM and an EC50 [3] of 0.121 nM. It also gave an EC50 [4] of 2.02 nM, an IC50 [5] of 1.61 nM and an IC50 [6] of 4.39 nM.
